Measured values reported in publication PMC5877318.

Assays:
Test in all cases: X-ray crystallography
mZFP568 ZF2-11 = mZFP568 ZF2-11 (Mus musculus, UniProt E9PYI1 391-665)
mZFP568 ZF1-11 = mZFP568 ZF1-11 (Mus musculus, UniProt E9PYI1 363-665)
mZFP568 ZF1-10 = mZFP568 ZF1-10 (Mus musculus, UniProt E9PYI1 363-637)
mZFP568 ZF1-10, sequence (E9PYI1 363-637): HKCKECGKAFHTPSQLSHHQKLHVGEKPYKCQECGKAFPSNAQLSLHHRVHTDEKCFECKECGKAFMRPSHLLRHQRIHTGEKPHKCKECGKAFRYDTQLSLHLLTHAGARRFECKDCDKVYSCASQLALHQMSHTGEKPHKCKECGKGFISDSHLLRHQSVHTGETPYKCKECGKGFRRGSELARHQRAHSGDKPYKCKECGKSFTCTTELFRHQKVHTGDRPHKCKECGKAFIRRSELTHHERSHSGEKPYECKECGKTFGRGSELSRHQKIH

mZFP568 ZF1-11, sequence (E9PYI1 363-665): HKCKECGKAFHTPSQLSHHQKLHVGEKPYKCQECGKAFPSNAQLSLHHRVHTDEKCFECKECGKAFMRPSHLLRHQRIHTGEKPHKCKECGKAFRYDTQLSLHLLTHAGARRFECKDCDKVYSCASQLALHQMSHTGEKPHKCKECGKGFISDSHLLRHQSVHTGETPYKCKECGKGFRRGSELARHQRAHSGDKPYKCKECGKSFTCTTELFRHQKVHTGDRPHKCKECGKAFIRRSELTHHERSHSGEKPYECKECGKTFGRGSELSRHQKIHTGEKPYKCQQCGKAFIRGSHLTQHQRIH
mZFP568 ZF2-11, sequence (E9PYI1 391-665): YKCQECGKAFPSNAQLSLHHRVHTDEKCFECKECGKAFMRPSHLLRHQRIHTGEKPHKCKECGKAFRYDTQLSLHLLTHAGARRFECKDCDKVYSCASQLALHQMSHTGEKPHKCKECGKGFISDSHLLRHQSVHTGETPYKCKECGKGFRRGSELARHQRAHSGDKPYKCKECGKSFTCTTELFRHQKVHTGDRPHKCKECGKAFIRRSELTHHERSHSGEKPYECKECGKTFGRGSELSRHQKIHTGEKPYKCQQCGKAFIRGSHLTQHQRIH

Binder	binding result (mZFP568 ZF2-11)	binding result (mZFP568 ZF1-11)	binding result (mZFP568 ZF1-10)
28-bp mouse Igf2-P0 crystallization oligo (dsDNA) DNA 1: TGTGGGCGTGGCACAGGTAAAAAGGGCA DNA 2: TGCCCTTTTTACCTGTGCCACGCCCACA	binds	binds	
26-bp mouse Igf2-P0 crystallization oligo (dsDNA) DNA 1: GTGGGCGTGGCACAGGTAAAAAGGGC DNA 2: GCCCTTTTTACCTGTGCCACGCCCAC			binds
